# Laboratory results published in IntAct's records for PubMed 21078995.
# B1: Nitrate/nitrite sensor protein NarX (Escherichia coli (strain K12)), P0AFA2 (parent)
# chain: MLKRCLSPLTLVNQVALIVLLSTAIGLAGMAVSGWLVQGVQGSAHAINKAGSLRMQSYRLLAAVPLSEKDKPLIKEMEQTAFSAELTRAAERDGQLAQLQGLQDYWRNELIPALMRAQNRETVSADVSQFVAGLDQLVSGFDRTTEMRIETVVLVHRVMAVFMALLLVFTIIWLRARLLQPWRQLLAMASAVSHRDFTQRANISGRNEMAMLGTALNNMSAELAESYAVLEQRVQEKTAGLEHKNQILSFLWQANRRLHSRAPLCERLSPVLNGLQNLTLLRDIELRVYDTDDEENHQEFTCQPDMTCDDKGCQLCPRGVLPVGDRGTTLKWRLADSHTQYGILLATLPQGRHLSHDQQQLVDTLVEQLTATLALDRHQERQQQLIVMEERATIARELHDSIAQSLSCMKMQVSCLQMQGDALPESSRELLSQIRNELNASWAQLRELLTTFRLQLTEPGLRPALEASCEEYSAKFGFPVKLDYQLPPRLVPSHQAIHLLQIAREALSNALKHSQASEVVVTVAQNDNQVKLTVQDNGCGVPENAIRSNHYGMIIMRDRAQSLRGDCRVRRRESGGTEVVVTFIPEKTFTDVQGDTHE
# Variants of: B1
# Conditions: with narl_ecoli narL
row,Variant,effect of a mutation on the interaction
1,MLKRCLSPLTLVNQVALIVLLSTAIGLAGMAVSGWLVQGVQGSAHAINKAGSLRMQSYRLLAAVPLSEKDKPLIKEMEQTAFSAELTRAAERDGQLAQLQGLQDYWRNELIPALMRAQNRETVSADVSQFVAGLDQLVSGFDRTTEMRIETVVLVHRVMAVFMALLLVFTIIWLRARLLQPWRQLLAMASAVSHRDFTQRANISGRNEMAMLGTALNNMSAELAESYAVLEQRVQEKTAGLEHKNQILSFLWQANRRLHSRAPLCERLSPVLNGLQNLTLLRDIELRVYDTDDEENHQEFTCQPDMTCDDKGCQLCPRGVLPVGDRGTTLKWRLADSHTQYGILLATLPQGRHLSHDQQQLVDTLVEQLTATLALDRHQERQQQLIVMEERATIARELQASIAQSLSCMKMQVSCLQMQGDALPESSRELLSQIRNELNASWAQLRELLTTFRLQLTEPGLRPALEASCEEYSAKFGFPVKLDYQLPPRLVPSHQAIHLLQIAREALSNALKHSQASEVVVTVAQNDNQVKLTVQDNGCGVPENAIRSNHYGMIIMRDRAQSLRGDCRVRRRESGGTEVVVTFIPEKTFTDVQGDTHE [H399Q;D400A],decreasing interaction
2,MLKRCLSPLTLVNQVALIVLLSTAIGLAGMAVSGWLVQGVQGSAHAINKAGSLRMQSYRLLAAVPLSEKDKPLIKEMEQTAFSAELTRAAERDGQLAQLQGLQDYWRNELIPALMRAQNRETVSADVSQFVAGLDQLVSGFDRTTEMRIETVVLVHRVMAVFMALLLVFTIIWLRARLLQPWRQLLAMASAVSHRDFTQRANISGRNEMAMLGTALNNMSAELAESYAVLEQRVQEKTAGLEHKNQILSFLWQANRRLHSRAPLCERLSPVLNGLQNLTLLRDIELRVYDTDDEENHQEFTCQPDMTCDDKGCQLCPRGVLPVGDRGTTLKWRLADSHTQYGILLATLPQGRHLSHDQQQLVDTLVEQLTATLALDRHQERQQQLIVMEERATIARELQDSIAHSLSCMKMQVSCLQMQGDALPESSRELLSQIRNELNASWAQLRELLTTFRLQLTEPGLRPALEASCEEYSAKFGFPVKLDYQLPPRLVPSHQAIHLLQIAREALSNALKHSQASEVVVTVAQNDNQVKLTVQDNGCGVPENAIRSNHYGMIIMRDRAQSLRGDCRVRRRESGGTEVVVTFIPEKTFTDVQGDTHE [H399Q;Q404H],disrupting interaction
3,MLKRCLSPLTLVNQVALIVLLSTAIGLAGMAVSGWLVQGVQGSAHAINKAGSLRMQSYRLLAAVPLSEKDKPLIKEMEQTAFSAELTRAAERDGQLAQLQGLQDYWRNELIPALMRAQNRETVSADVSQFVAGLDQLVSGFDRTTEMRIETVVLVHRVMAVFMALLLVFTIIWLRARLLQPWRQLLAMASAVSHRDFTQRANISGRNEMAMLGTALNNMSAELAESYAVLEQRVQEKTAGLEHKNQILSFLWQANRRLHSRAPLCERLSPVLNGLQNLTLLRDIELRVYDTDDEENHQEFTCQPDMTCDDKGCQLCPRGVLPVGDRGTTLKWRLADSHTQYGILLATLPQGRHLSHDQQQLVDTLVEQLTATLALDRHQERQQQLIVMEERATIARELQDSIAASLSCMKMQVSCLQMQGDALPESSRELLSQIRNELNASWAQLRELLTTFRLQLTEPGLRPALEASCEEYSAKFGFPVKLDYQLPPRLVPSHQAIHLLQIAREALSNALKHSQASEVVVTVAQNDNQVKLTVQDNGCGVPENAIRSNHYGMIIMRDRAQSLRGDCRVRRRESGGTEVVVTFIPEKTFTDVQGDTHE [H399Q;Q404A],disrupting interaction
4,MLKRCLSPLTLVNQVALIVLLSTAIGLAGMAVSGWLVQGVQGSAHAINKAGSLRMQSYRLLAAVPLSEKDKPLIKEMEQTAFSAELTRAAERDGQLAQLQGLQDYWRNELIPALMRAQNRETVSADVSQFVAGLDQLVSGFDRTTEMRIETVVLVHRVMAVFMALLLVFTIIWLRARLLQPWRQLLAMASAVSHRDFTQRANISGRNEMAMLGTALNNMSAELAESYAVLEQRVQEKTAGLEHKNQILSFLWQANRRLHSRAPLCERLSPVLNGLQNLTLLRDIELRVYDTDDEENHQEFTCQPDMTCDDKGCQLCPRGVLPVGDRGTTLKWRLADSHTQYGILLATLPQGRHLSHDQQQLVDTLVEQLTATLALDRHQERQQQLIVMEERATIARELQDSIAQSLSCMKMQVSCLQMQGDALPESSRELLSQIRNELNASWAQLRELLTTFRLQLTEPGLRPALEASCEEYSAKFGFPVKLDYQLPPRLVPSHQAIHLLQIAREALSNALKHSQASEVVVTVAQNDNQVKLTVQDNGCGVPENAIRSNHYGMIIMRDRAQSLRGDCRVRRRESGGTEVVVTFIPEKTFTDVQGDTHE [H399Q],decreasing interaction
